Results on three molecules are retold here after US20150071950A1 (SAMSUNG ELECTRONICS, published 2015).

For test [1], the target named is T1, human c-Met/Fc fusion protein (R&D Systems) (human, UniProt P08581 25-932).
T1 construct: Bought protein; also called c-Met-Fc (#358-MT/CF, R&D Systems); human c-Met/Fc protein; not shown: Fc part of the bought fusion protein
The test can be described thus: SPR, Biacore T100; antibody captured by human Fab capture on CM5 chip, c-Met-Fc as analyte. How it is done:
(§1) An examination was made to see whether the antibody-drug conjugates maintain affinity for the antigen.
(§2) Briefly, a human Fab capture (GE Healthcare) was immobilized on CM5 chip (#BR-1005-30, GE) according to the manufacturer's instruction. […] The chip was regenerated with 10 mM Glycine-HCl (pH 1.5). To quantify the affinity, the data obtained above was fitted using BIAevaluation software (GE Healthcare, Biacore T100 evaluation software).

In test [2] the target is T1, human c-Met/Fc fusion protein (R&D …). The experiment in a line: SPR, Biacore T100; ADC captured by human Fab capture on CM5 chip, c-Met-Fc as analyte. As for the experimental part: as §1, §2
Test [3] has the same target. The experiment in a line: ELISA, hybridoma culture on plate-coated human c-Met/Fc fusion protein. As for the experimental part:
The hybridoma cell culture obtained in Reference Example 1.1.2 was added in an amount of 50 μL to each well of the plates and incubated for 1 hour. The cells remaining unreacted were washed out with a sufficient amount of Tris-buffered saline and Tween 20 (TBST). Goat anti-mouse IgG-horseradish peroxidase (HRP) was added to the plates and incubated for 1 hour at room temperature. The plates were washed with a sufficient amount of TBST, followed by reacting the peroxidase with a substrate (OPD). Absorbance at 450 nm was measured on an ELISA reader.

T1 sequence (P08581 25-932 limits assumed): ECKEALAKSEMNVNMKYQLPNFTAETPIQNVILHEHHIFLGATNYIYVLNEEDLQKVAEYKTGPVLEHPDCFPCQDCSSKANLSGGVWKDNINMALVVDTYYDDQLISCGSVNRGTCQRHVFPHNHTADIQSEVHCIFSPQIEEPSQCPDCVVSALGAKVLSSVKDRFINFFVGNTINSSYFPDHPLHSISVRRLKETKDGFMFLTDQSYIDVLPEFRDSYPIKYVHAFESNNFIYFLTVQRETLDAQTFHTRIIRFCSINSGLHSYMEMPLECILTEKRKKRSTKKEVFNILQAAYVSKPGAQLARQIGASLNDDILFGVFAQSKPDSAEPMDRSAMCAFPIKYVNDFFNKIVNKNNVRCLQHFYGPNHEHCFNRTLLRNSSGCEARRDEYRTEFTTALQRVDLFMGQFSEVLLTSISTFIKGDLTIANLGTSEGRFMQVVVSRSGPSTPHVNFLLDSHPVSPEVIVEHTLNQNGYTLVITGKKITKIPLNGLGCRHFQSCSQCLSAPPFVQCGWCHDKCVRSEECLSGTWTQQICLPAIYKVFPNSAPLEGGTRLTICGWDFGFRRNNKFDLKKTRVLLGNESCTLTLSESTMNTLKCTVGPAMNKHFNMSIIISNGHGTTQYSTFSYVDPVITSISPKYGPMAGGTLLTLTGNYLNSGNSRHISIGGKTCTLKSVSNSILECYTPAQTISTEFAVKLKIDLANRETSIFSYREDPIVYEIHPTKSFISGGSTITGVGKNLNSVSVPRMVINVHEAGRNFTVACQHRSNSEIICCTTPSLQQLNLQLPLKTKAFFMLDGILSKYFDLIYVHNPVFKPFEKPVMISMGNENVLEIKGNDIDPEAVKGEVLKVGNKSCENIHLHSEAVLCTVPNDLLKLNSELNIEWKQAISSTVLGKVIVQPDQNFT

B1: anti-c-Met antibody L3-1Y/IgG2 (antibody, V domains shown)
VH: EVQLVESGGGLVQPGGSLRLSCAASGFTFTDYYMSWVRQAPGKGLEWLGFIRNKANGYTTEYSASVKGRFTISRDNSKNTLYLQMNSLRAEDTAVYYCARDNWFAYWGQGTLVTVSS
VL: DIQMTQSPSSLSASVGDRVTITCKSSQSLLASGNQNNYLAWYQQKPGKAPKMLIIWASTRVSGVPSRFSGSGSGTDFTLTISSLQPEDFATYYCQQSYSRPYTFGQGTKVEIKR
notes: also called huAbF46-H4-A1 (IgG2 Fc)
Regarding B1, in test [1], the dissociation constant (Kd) worked out at 0.058 nM, the off-rate (koff) turned out to be 3.42e-05 s⁻¹ and the on-rate constant (kon) amounted to 589000 M⁻¹ s⁻¹.

B2: antibody-drug conjugate ADC1 (L3-1Y/IgG2 conjugated with docetaxel by amine coupling, feed molar ratio 5; DAR 3.7) (antibody, V domains shown)
VH: EVQLVESGGGLVQPGGSLRLSCAASGFTFTDYYMSWVRQAPGKGLEWLGFIRNKANGYTTEYSASVKGRFTISRDNSKNTLYLQMNSLRAEDTAVYYCARDNWFAYWGQGTLVTVSS
VL: DIQMTQSPSSLSASVGDRVTITCKSSQSLLASGNQNNYLAWYQQKPGKAPKMLIIWASTRVSGVPSRFSGSGSGTDFTLTISSLQPEDFATYYCQQSYSRPYTFGQGTKVEIKR
modifications: docetaxel-succinate (NHS-DTX) coupled to primary amines of lysine residues; sites not stated; DAR 3.7 for the whole antibody
notes: also called ADC (DAR 3.7)
Consider B2, for which, in test [2], the dissociation constant Kd was 0.0998 nM, the off-rate constant (koff) stood at 3.63e-05 s⁻¹ and the kon is 364000 M⁻¹ s⁻¹.

B3: AbF46, mouse monoclonal antibody to c-Met (hybridoma KCLRF-BP-00220) (antibody, V domains shown)
VH: EVKLVESGGGLVQPGGSLRLSCATSGFTFTDYYMSWVRQPPGKALEWLGFIRNKANGYTTEYSASVKGRFTISRDNSQSILYLQMDTLRAEDSATYYCARDNWFAYWGQGTLVTVSA
VL: DILMTQSPSSLTVSAGEKVTMSCKSSQSLLASGNQNNYLAWHQQKPGRSPKMLIIWASTRVSGVPDRFIGSGSGTDFTLTINSVQAEDLAVYYCQQSYSAPLTFGAGTKLELK
notes: Tested as hybridoma culture supernatant in the selection ELISA; also called mouse antibody AbF46
On to B3, for which, in test [3], the binding result is given as “binds”.
